Measured values reported in publication PMC2685089.

B1: CKIT (structured_DNA)
DNA: AGGGAGGGCGCTGGGAGGAGGG
B2: 32R (structured_DNA)
DNA: AGGGCGGTGTGGGAAGAGGGAAGAGGGGGAGG
B3: dsNHE (32R:32Y) (dsDNA)
DNA 1: B2 DNA
DNA 2: CCTCCCCCTCTTCCCTCTTCCCACACCGCCCT

Legend:
Experiment in all cases: EMSA
[1] = biological target: T1, Up1 (UniProt P09651-2 2-196)
[2] = biological target: T1, Up1; remark: listed apart in the source
[3] = biological target: hnRNP A1 (A1) (UniProt P09651-2 2-320)

| Binder | binding result [1] | Kd [2] | binding result [3] |
| --- | --- | --- | --- |
| B1 | binds |  |  |
| B2 |  | ~50 nM |  |
| B3 | no binding |  | no binding |
